Laboratory results taken from the supplement of paper PMC10567573.

B1: PBXIP1 (parent)
chain: FGEDGIFRHDRLRFRDFVDALEDS

Variants of: B1
Test: protein stability index of a GFP-peptide fusion (GPS, HEK-293T) (PSI 1-6); higher = more stable
Conditions: c terminus: a fixed tail appended
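Also: lentivirally expressed fusions sorted by FACS into six bins by GFP to DsRed ratio, PSI derived from sequencing read proportions per bin multiplied by bin number.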

Which protein stability index does the source give for FGEDGIFRHDRERFRDFVDALEDS [L12E] here?
The protein stability index was 3.51.

With FGEDGIFRHDRHRFRDFVDALEDS [L12H] as the variant, how does the protein stability index read?
The protein stability index was 2.73.

Which protein stability index does the source give for FGEDGIFRHDRKRFRDFVDALEDS [L12K] here?
Its protein stability index is 2.46.

With FGEDGIFRHDRVRFRDFVDALEDS [L12V] as the variant, how does the protein stability index read?
Its protein stability index is 2.65.

For FGEDGIFRHDRDRFRDFVDALEDS [L12D], which protein stability index is on record?
The protein stability index was 3.38.

Which protein stability index does the source give for FGEDGIFRHDRTRFRDFVDALEDS [L12T] here?
The protein stability index was 2.44.

For FGEDGIFRHDRSRFRDFVDALEDS [L12S], which protein stability index is on record?
Its protein stability index is 2.55.

Which protein stability index does the source give for FGEDGIFRHDRARFRDFVDALEDS [L12A] here?
The protein stability index was 2.88.

For FGEDGIFRHDRPRFRDFVDALEDS [L12P], which protein stability index is on record?
The protein stability index was 2.43.

For FGEDGIFRHDRIRFRDFVDALEDS [L12I], which protein stability index is on record?
The protein stability index was 3.05.

Which protein stability index does the source give for FGEDGIFRHDRWRFRDFVDALEDS [L12W] here?
Its protein stability index is 2.7.

Which protein stability index does the source give for FGEDGIFRHDRMRFRDFVDALEDS [L12M] here?
The protein stability index was 2.51.

For FGEDGIFRHDRQRFRDFVDALEDS [L12Q], which protein stability index is on record?
Its protein stability index is 3.17.

For FGEDGIFRHDRYRFRDFVDALEDS [L12Y], which protein stability index is on record?
The protein stability index was 2.71.

For FGEDGIFRHDRCRFRDFVDALEDS [L12C], which protein stability index is on record?
Its protein stability index is 2.74.

For FGEDGIFRHDRGRFRDFVDALEDS [L12G], which protein stability index is on record?
Its protein stability index is 3.31.

For FGEDGIFRHDRRRFRDFVDALEDS [L12R], which protein stability index is on record?
The protein stability index was 2.58.

For FGEDGIFRHDRNRFRDFVDALEDS [L12N], which protein stability index is on record?
Its protein stability index is 3.14.

For FGEDGIFRHDRFRFRDFVDALEDS [L12F], which protein stability index is on record?
The protein stability index was 2.56.

Which protein stability index does the source give for FGEDGIFRVDRLRFRDFVDALEDS [H9V] here?
The protein stability index was 2.82.

Which protein stability index does the source give for FGEDGIFRADRLRFRDFVDALEDS [H9A] here?
Its protein stability index is 2.84.

Which protein stability index does the source give for FGEDGIFRNDRLRFRDFVDALEDS [H9N] here?
Its protein stability index is 3.28.

For FGEDGIFRRDRLRFRDFVDALEDS [H9R], which protein stability index is on record?
The protein stability index was 2.39.

Which protein stability index does the source give for FGEDGIFRKDRLRFRDFVDALEDS [H9K] here?
Its protein stability index is 2.08.

Which protein stability index does the source give for FGEDGIFRSDRLRFRDFVDALEDS [H9S] here?
Its protein stability index is 2.79.

For FGEDGIFRDDRLRFRDFVDALEDS [H9D], which protein stability index is on record?
Its protein stability index is 3.76.

Which protein stability index does the source give for FGEDGIFRMDRLRFRDFVDALEDS [H9M] here?
Its protein stability index is 2.73.

Which protein stability index does the source give for FGEDGIFRLDRLRFRDFVDALEDS [H9L] here?
Its protein stability index is 2.4.

For FGEDGIFRYDRLRFRDFVDALEDS [H9Y], which protein stability index is on record?
Its protein stability index is 2.46.

For FGEDGIFRCDRLRFRDFVDALEDS [H9C], which protein stability index is on record?
The protein stability index was 2.47.

For FGEDGIFRGDRLRFRDFVDALEDS [H9G], which protein stability index is on record?
The protein stability index was 3.19.

With FGEDGIFRFDRLRFRDFVDALEDS [H9F] as the variant, how does the protein stability index read?
The protein stability index was 2.26.

Which protein stability index does the source give for FGEDGIFREDRLRFRDFVDALEDS [H9E] here?
The protein stability index was 3.5.

With FGEDGIFRIDRLRFRDFVDALEDS [H9I] as the variant, how does the protein stability index read?
The protein stability index was 2.41.

Which protein stability index does the source give for FGEDGIFRQDRLRFRDFVDALEDS [H9Q] here?
Its protein stability index is 2.42.

For FGEDGIFRWDRLRFRDFVDALEDS [H9W], which protein stability index is on record?
Its protein stability index is 2.04.

With FGEDGIFRTDRLRFRDFVDALEDS [H9T] as the variant, how does the protein stability index read?
The protein stability index was 2.4.

For FGEDGIFRPDRLRFRDFVDALEDS [H9P], which protein stability index is on record?
Its protein stability index is 2.88.

Which protein stability index does the source give for FGEDGIFRHDMLRFRDFVDALEDS [R11M] here?
The protein stability index was 2.44.

For FGEDGIFRHDKLRFRDFVDALEDS [R11K], which protein stability index is on record?
Its protein stability index is 2.57.

Which protein stability index does the source give for FGEDGIFRHDCLRFRDFVDALEDS [R11C] here?
The protein stability index was 2.73.

With FGEDGIFRHDELRFRDFVDALEDS [R11E] as the variant, how does the protein stability index read?
Its protein stability index is 3.36.

For FGEDGIFRHDPLRFRDFVDALEDS [R11P], which protein stability index is on record?
Its protein stability index is 3.13.

For FGEDGIFRHDQLRFRDFVDALEDS [R11Q], which protein stability index is on record?
Its protein stability index is 3.29.

For FGEDGIFRHDDLRFRDFVDALEDS [R11D], which protein stability index is on record?
The protein stability index was 3.95.

For FGEDGIFRHDNLRFRDFVDALEDS [R11N], which protein stability index is on record?
The protein stability index was 3.09.

With FGEDGIFRHDFLRFRDFVDALEDS [R11F] as the variant, how does the protein stability index read?
Its protein stability index is 2.5.

For FGEDGIFRHDILRFRDFVDALEDS [R11I], which protein stability index is on record?
Its protein stability index is 2.43.

For FGEDGIFRHDALRFRDFVDALEDS [R11A], which protein stability index is on record?
Its protein stability index is 2.57.

Which protein stability index does the source give for FGEDGIFRHDTLRFRDFVDALEDS [R11T] here?
Its protein stability index is 3.02.

With FGEDGIFRHDYLRFRDFVDALEDS [R11Y] as the variant, how does the protein stability index read?
Its protein stability index is 2.35.

For FGEDGIFRHDHLRFRDFVDALEDS [R11H], which protein stability index is on record?
Its protein stability index is 2.83.

Which protein stability index does the source give for FGEDGIFRHDSLRFRDFVDALEDS [R11S] here?
The protein stability index was 2.73.

For FGEDGIFRHDLLRFRDFVDALEDS [R11L], which protein stability index is on record?
The protein stability index was 2.33.

With FGEDGIFRHDWLRFRDFVDALEDS [R11W] as the variant, how does the protein stability index read?
The protein stability index was 2.49.

Which protein stability index does the source give for FGEDGIFRHDGLRFRDFVDALEDS [R11G] here?
Its protein stability index is 3.12.

Which protein stability index does the source give for FGEDGIFRHDVLRFRDFVDALEDS [R11V] here?
Its protein stability index is 2.46.

Which protein stability index does the source give for FGEDGIFRHDRLRARDFVDALEDS [F14A] here?
The protein stability index was 3.43.

With FGEDGIFRHDRLRERDFVDALEDS [F14E] as the variant, how does the protein stability index read?
Its protein stability index is 3.86.

For FGEDGIFRHDRLRTRDFVDALEDS [F14T], which protein stability index is on record?
Its protein stability index is 3.62.

Which protein stability index does the source give for FGEDGIFRHDRLRQRDFVDALEDS [F14Q] here?
Its protein stability index is 3.46.

Which protein stability index does the source give for FGEDGIFRHDRLRRRDFVDALEDS [F14R] here?
Its protein stability index is 3.37.

With FGEDGIFRHDRLRCRDFVDALEDS [F14C] as the variant, how does the protein stability index read?
Its protein stability index is 1.99.

Which protein stability index does the source give for FGEDGIFRHDRLRKRDFVDALEDS [F14K] here?
Its protein stability index is 3.38.

Which protein stability index does the source give for FGEDGIFRHDRLRHRDFVDALEDS [F14H] here?
The protein stability index was 2.87.

For FGEDGIFRHDRLRPRDFVDALEDS [F14P], which protein stability index is on record?
Its protein stability index is 3.01.

Which protein stability index does the source give for FGEDGIFRHDRLRGRDFVDALEDS [F14G] here?
Its protein stability index is 3.67.

For FGEDGIFRHDRLRIRDFVDALEDS [F14I], which protein stability index is on record?
Its protein stability index is 2.86.

With FGEDGIFRHDRLRLRDFVDALEDS [F14L] as the variant, how does the protein stability index read?
Its protein stability index is 2.96.

Which protein stability index does the source give for FGEDGIFRHDRLRDRDFVDALEDS [F14D] here?
The protein stability index was 3.84.

For FGEDGIFRHDRLRYRDFVDALEDS [F14Y], which protein stability index is on record?
Its protein stability index is 2.57.

With FGEDGIFRHDRLRNRDFVDALEDS [F14N] as the variant, how does the protein stability index read?
The protein stability index was 3.71.

With FGEDGIFRHDRLRMRDFVDALEDS [F14M] as the variant, how does the protein stability index read?
The protein stability index was 3.23.

With FGEDGIFRHDRLRWRDFVDALEDS [F14W] as the variant, how does the protein stability index read?
The protein stability index was 2.2.

Which protein stability index does the source give for FGEDGIFRHDRLRSRDFVDALEDS [F14S] here?
The protein stability index was 3.81.

For FGEDGIFRHDRLRVRDFVDALEDS [F14V], which protein stability index is on record?
The protein stability index was 3.05.

With FGEDGIFRHDRLWFRDFVDALEDS [R13W] as the variant, how does the protein stability index read?
Its protein stability index is 1.99.

With FGEDGIFRHDRLLFRDFVDALEDS [R13L] as the variant, how does the protein stability index read?
The protein stability index was 2.71.

With FGEDGIFRHDRLEFRDFVDALEDS [R13E] as the variant, how does the protein stability index read?
The protein stability index was 4.02.

Which protein stability index does the source give for FGEDGIFRHDRLVFRDFVDALEDS [R13V] here?
The protein stability index was 2.72.

Which protein stability index does the source give for FGEDGIFRHDRLDFRDFVDALEDS [R13D] here?
The protein stability index was 3.29.

With FGEDGIFRHDRLHFRDFVDALEDS [R13H] as the variant, how does the protein stability index read?
The protein stability index was 2.57.

Which protein stability index does the source give for FGEDGIFRHDRLGFRDFVDALEDS [R13G] here?
The protein stability index was 2.9.

With FGEDGIFRHDRLTFRDFVDALEDS [R13T] as the variant, how does the protein stability index read?
Its protein stability index is 3.26.

With FGEDGIFRHDRLPFRDFVDALEDS [R13P] as the variant, how does the protein stability index read?
Its protein stability index is 3.35.

Which protein stability index does the source give for FGEDGIFRHDRLSFRDFVDALEDS [R13S] here?
The protein stability index was 2.92.

For FGEDGIFRHDRLYFRDFVDALEDS [R13Y], which protein stability index is on record?
Its protein stability index is 2.32.

With FGEDGIFRHDRLAFRDFVDALEDS [R13A] as the variant, how does the protein stability index read?
Its protein stability index is 3.13.

With FGEDGIFRHDRLCFRDFVDALEDS [R13C] as the variant, how does the protein stability index read?
Its protein stability index is 2.73.

For FGEDGIFRHDRLQFRDFVDALEDS [R13Q], which protein stability index is on record?
The protein stability index was 3.74.

For FGEDGIFRHDRLMFRDFVDALEDS [R13M], which protein stability index is on record?
Its protein stability index is 2.79.

Which protein stability index does the source give for FGEDGIFRHDRLFFRDFVDALEDS [R13F] here?
Its protein stability index is 2.25.

Which protein stability index does the source give for FGEDGIFRHDRLKFRDFVDALEDS [R13K] here?
The protein stability index was 2.85.

Which protein stability index does the source give for FGEDGIFRHDRLNFRDFVDALEDS [R13N] here?
Its protein stability index is 3.56.
